Data published in patent US20150344570A1 (published 2015).
Residue numbers refer to the chain shown, from its start. Names may count otherwise.

B1: GpH7-A5/GpH7-B3 variant P329_04F/GpL16-k0 (antibody, human IgG1, kappa)
heavy 1: not shown
heavy 2: not shown
light: DIVMTQSPLSLPVTPGEPASISCQASESLVHSNRNTYLHWYLQKPGQSPQLLIYKVSNRFSGVPDRFSGSGSGTDFTLKISRVEAEDVGVYYCSQNTHVPPTFGQGTKVEIERTVAAPSVFIFPPSDEQLKSGTASVVCLLNNFYPREAKVQWKVDNALQSGNSQESVTEQDSKDSTYSLSSTLTLSKADYEKHKVYACEVTHQGLSSPVTKSFNRGEC
notes: He Ab: mutation in the GpH7-B3 H chain only
B2: GpH7-A5/GpH7-B3 variant Y300_14T/GpL16-k0 (antibody, human IgG1, kappa)
heavy 1: not shown
heavy 2: not shown
light: B1 light
notes: as for B1
B3: GpH7-A5/GpH7-B3 variant P329_03V/GpL16-k0 (antibody, human IgG1, kappa)
heavy 1: not shown
heavy 2: not shown
light: B1 light
notes: as for B1
B4: GpH7-A5/GpH7-B3 variant P329_07I/GpL16-k0 (antibody, human IgG1, kappa)
heavy 1: not shown
heavy 2: not shown
light: B1 light
notes: as for B1
B5: GpH7-A5/GpH7-B3 variant P329_12R/GpL16-k0 (antibody, human IgG1, kappa)
heavy 1: not shown
heavy 2: not shown
light: B1 light
notes: He Ab: P329R (EU numbering) in the GpH7-B3 H chain only; also called GpH7-A5/GpH7-B12/GpL16-k0
B6: GpH7-A5/GpH7-B3 variant S324_18N/GpL16-k0 (antibody, human IgG1, kappa)
heavy 1: not shown
heavy 2: not shown
light: B1 light
notes: as for B1
B7: GpH7-B3 variant G236_10E/GpL16-k0 (antibody, human IgG1, kappa)
heavy: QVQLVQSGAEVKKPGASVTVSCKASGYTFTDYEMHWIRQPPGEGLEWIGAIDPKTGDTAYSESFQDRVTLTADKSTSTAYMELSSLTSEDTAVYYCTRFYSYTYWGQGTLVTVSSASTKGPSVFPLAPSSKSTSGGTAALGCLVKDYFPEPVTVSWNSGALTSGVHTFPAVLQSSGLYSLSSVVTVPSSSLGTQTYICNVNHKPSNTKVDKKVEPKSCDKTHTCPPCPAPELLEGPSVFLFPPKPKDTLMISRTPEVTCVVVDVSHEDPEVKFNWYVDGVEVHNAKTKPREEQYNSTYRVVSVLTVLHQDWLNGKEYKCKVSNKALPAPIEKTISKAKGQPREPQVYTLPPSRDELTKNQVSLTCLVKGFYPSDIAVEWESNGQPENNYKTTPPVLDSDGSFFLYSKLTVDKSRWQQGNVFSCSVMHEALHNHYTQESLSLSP
light: B1 light
notes: homodimerized; also called Ho Ab
B8: GpH7-A5/GpH7-B3 variant S324_16H/GpL16-k0 (antibody, human IgG1, kappa)
heavy 1: not shown
heavy 2: not shown
light: B1 light
notes: as for B1
B9: GpH7-B3 variant H268_09D/GpL16-k0 (antibody, human IgG1, kappa)
heavy: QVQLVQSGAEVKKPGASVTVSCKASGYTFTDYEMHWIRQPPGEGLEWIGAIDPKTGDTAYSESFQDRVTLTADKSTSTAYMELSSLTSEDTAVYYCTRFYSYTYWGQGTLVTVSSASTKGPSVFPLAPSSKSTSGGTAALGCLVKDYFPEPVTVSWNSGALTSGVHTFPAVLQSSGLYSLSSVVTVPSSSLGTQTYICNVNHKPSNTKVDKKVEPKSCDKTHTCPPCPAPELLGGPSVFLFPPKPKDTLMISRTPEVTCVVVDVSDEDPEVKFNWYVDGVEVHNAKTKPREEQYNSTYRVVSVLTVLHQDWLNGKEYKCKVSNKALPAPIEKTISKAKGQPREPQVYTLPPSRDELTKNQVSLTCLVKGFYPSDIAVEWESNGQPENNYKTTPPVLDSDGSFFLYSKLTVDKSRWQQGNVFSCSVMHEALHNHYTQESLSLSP
light: B1 light
notes: as for B7
B10: GpH7-A5/GpH7-B3 variant S324_01G/GpL16-k0 (antibody, human IgG1, kappa)
heavy 1: not shown
heavy 2: not shown
light: B1 light
notes: as for B1
B11: GpH7-B3 variant H268_10E/GpL16-k0 (antibody, human IgG1, kappa)
heavy: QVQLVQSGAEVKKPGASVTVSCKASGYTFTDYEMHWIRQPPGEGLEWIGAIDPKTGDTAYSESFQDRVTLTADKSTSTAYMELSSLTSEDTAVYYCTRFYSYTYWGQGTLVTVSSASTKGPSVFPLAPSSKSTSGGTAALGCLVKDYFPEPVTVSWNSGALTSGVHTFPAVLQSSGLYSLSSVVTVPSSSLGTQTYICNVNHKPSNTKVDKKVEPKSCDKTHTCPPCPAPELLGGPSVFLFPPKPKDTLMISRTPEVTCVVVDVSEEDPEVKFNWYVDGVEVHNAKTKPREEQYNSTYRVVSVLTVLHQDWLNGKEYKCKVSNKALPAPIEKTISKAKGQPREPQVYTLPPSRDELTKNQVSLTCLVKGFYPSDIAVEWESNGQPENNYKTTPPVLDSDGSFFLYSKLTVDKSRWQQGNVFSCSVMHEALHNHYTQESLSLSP
light: B1 light
notes: as for B7
B12: GpH7-A5/GpH7-B3 variant Y300_13S/GpL16-k0 (antibody, human IgG1, kappa)
heavy 1: not shown
heavy 2: not shown
light: B1 light
notes: as for B1
B13: GpH7-B3 variant G236_09D/GpL16-k0 (antibody, human IgG1, kappa)
heavy: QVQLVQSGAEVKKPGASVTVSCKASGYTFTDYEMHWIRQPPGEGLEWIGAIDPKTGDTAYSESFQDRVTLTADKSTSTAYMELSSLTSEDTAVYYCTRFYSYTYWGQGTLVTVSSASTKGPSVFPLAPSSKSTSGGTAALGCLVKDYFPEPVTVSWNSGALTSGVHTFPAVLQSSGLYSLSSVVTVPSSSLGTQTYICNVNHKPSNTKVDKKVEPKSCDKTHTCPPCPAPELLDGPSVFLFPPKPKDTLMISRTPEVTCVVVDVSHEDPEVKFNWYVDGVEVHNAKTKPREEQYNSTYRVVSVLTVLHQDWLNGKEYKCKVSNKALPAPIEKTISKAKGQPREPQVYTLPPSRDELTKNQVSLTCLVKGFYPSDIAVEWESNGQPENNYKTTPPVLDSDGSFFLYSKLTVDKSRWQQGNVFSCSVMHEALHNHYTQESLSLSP
light: B1 light
notes: as for B7
B14: GpH7-A5/GpH7-B3 variant P329_13S/GpL16-k0 (antibody, human IgG1, kappa)
heavy 1: not shown
heavy 2: not shown
light: B1 light
notes: as for B1
B15: GpH7-A5/GpH7-B3 variant P329_16H/GpL16-k0 (antibody, human IgG1, kappa)
heavy 1: not shown
heavy 2: not shown
light: B1 light
notes: as for B1
B16: GpH7-A5/GpH7-B3 variant S324_09D/GpL16-k0 (antibody, human IgG1, kappa)
heavy 1: not shown
heavy 2: not shown
light: B1 light
notes: as for B1
B17: GpH7-A5/GpH7-B3 variant P329_14T/GpL16-k0 (antibody, human IgG1, kappa)
heavy 1: not shown
heavy 2: not shown
light: B1 light
notes: as for B1

Assays:
FcγRIIa H [1] = molecular target: T1, FcγRIIa H (human, UniProt P12318 34-217); assay: SPR (Biacore); He/Con_2aH divided by He/Con_2b (FcγRIIa H versus FcγRIIb)
T1 construct: extracellular domain; also called FcgRIIa H; 2aH; not shown: His tag at the C terminus
T1 sequence (looked up): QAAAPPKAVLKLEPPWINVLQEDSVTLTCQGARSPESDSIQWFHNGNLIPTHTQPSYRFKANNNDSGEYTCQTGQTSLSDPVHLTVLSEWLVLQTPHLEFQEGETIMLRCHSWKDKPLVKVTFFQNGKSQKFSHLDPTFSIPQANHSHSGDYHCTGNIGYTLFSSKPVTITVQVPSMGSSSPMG
Procedure: (§1) The heterodimerized antibodies He Abs in which one of the H chains was introduced with an alteration were assayed for their binding activities to each activating FcγR and inhibitory FcγR according to the method described in Example 4. […] The activating FcγRs in FIGS. 26, 27, 28, and 29 are FcγRIa, FcγRIIa (R), FcγRIIa (H), and FcγRIIIa, respectively.
(§2) Analysis of interaction between objective antibody and the FcγR was carried out using Biacore T100 (GE Healthcare). HBS-EP+ (GE Healthcare) was used as the running buffer, and the measurement temperature was set to 25° C. Chips produced by immobilizing the antigen peptide by the amine coupling method to a Series S Sencor Chip CM5 (GE Healthcare), or alternatively, chips produced by allowing preliminarily biotinylated antigen peptides to interact with and immobilize onto a Series S Sensor Chip SA (certified) (GE Healthcare) were used. Antibodies of interest were captured onto an antigen peptide-immobilized chip, and allowed to interact to each FcγR diluted with running buffer. To regenerate and repeatedly use the chip, the antibodies captured on the chip were washed off by reacting 10 mM glycine-HCl, pH 1.5.

FcγRIIa H [2] = molecular target: T1, FcγRIIa H; assay: SPR (Biacore), FcγR passed over captured antibody; binding amount as % of control GpH7-A5/GpH7-B3/GpL16-k0 (=100)
Procedure: as §1, §2

FcγRIIb = molecular target: T2, FcγRIIb (human, UniProt P31994 43-217); assay: as above
T2 construct: extracellular domain; also called FcgRIIb; 2b; not shown: His tag at the C terminus
T2 sequence (looked up): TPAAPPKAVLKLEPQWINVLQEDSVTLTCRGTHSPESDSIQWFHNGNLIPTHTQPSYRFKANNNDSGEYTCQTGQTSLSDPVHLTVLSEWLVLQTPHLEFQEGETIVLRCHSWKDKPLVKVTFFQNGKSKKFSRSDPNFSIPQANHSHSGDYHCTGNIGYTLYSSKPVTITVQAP
Procedure: as §1, §2

[3] = molecular target: T3, FcγRIIa R (extracellular domain, His tag at the C terminus) (human, UniProt P12318 34-217); assay: SPR (Biacore), relative binding, control GpH7-B3/GpL16-k0 = 100
T3 construct: extracellular domain; Soluble analyte in Biacore; also called FcgRIIa R type; 2aR
T3 sequence (looked up): T1 sequence (looked up) with H134R
Procedure: as §2

Row | Binder | He_2aH/2b (IIaH/IIb) (FcγRIIa H [1]) [ratio] | He/Con_2aH (FcγRIIa H [2]) | He/Con_2b (FcγRIIb) | Ho/Con_2aR [3]
1 | B1 | 1.38 | 44.5 relative, control = 100 | 32.2 relative, control = 100 | –
2 | B2 | 1.69 | 94.1 relative, control = 100 | 55.6 relative, control = 100 | –
3 | B3 | 1.57 | 60.4 relative, control = 100 | 38.5 relative, control = 100 | –
4 | B4 | 1.56 | 53.8 relative, control = 100 | 34.6 relative, control = 100 | –
5 | B5 | 2.63 | 46.4 relative, control = 100 | 17.6 relative, control = 100 | –
6 | B6 | 1.21 | 97.8 relative, control = 100 | 81.1 relative, control = 100 | –
7 | B7 | – | – | – | 140 % of control
8 | B8 | 1.22 | 102 relative, control = 100 | 83.5 relative, control = 100 | –
9 | B9 | – | – | – | 157 % of control
10 | B10 | 1.22 | 98.8 relative, control = 100 | 81.1 relative, control = 100 | –
11 | B11 | – | – | – | 154 % of control
12 | B12 | 1.64 | 88.1 relative, control = 100 | 53.9 relative, control = 100 | –
13 | B13 | – | – | – | 107 % of control
14 | B14 | 1.64 | 67.3 relative, control = 100 | 41 relative, control = 100 | –
15 | B15 | 1.69 | 66.1 relative, control = 100 | 39.1 relative, control = 100 | –
16 | B16 | 1.23 | 106 relative, control = 100 | 85.8 relative, control = 100 | –
17 | B17 | 1.65 | 62.4 relative, control = 100 | 37.9 relative, control = 100 | –
